This assay concerns the target TF^SBD-PPD (substrate-binding domain plus peptidyl prolyl isomerase domain of E. coli TF) (E. coli) (UniProt P0A850). Put plainly: NMR relaxation dispersion.

Data on two substances can be found in publication PMC4070327.

Sequence of PhoA^d-e (PhoA fragment with TF-binding sites d and e) (P00634 220-310): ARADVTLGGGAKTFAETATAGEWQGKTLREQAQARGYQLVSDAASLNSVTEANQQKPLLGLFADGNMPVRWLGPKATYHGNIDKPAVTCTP

The term koff denotes a measure of how fast the partners let go of each other. For the substance “PhoA^a-c (PhoA fragment with TF-binding sites a to c) (from UniProt P00634 1-150) (domain or fragment)”, the koff is 50 s⁻¹ and the residence time (1/koff) was determined as 20 ms.

With “PhoA^d-e (PhoA fragment with TF-binding sites d and e) (from UniProt P00634 220-310) (domain or fragment)”, the residence time (1/koff) came to 20 ms.
